Test results as given in article PMC11508082 (PLOS Pathogens, 2024).

Molecular target: the molecule itself
Experiment: SDS-PAGE and anti-6xHis immunoblot of Ni-affinity elution fractions

B1: 6xHis tagged PdhR (natural protein)
chain: MAYSKIRQPKLSDVIEQQLEFLILEGTLRPGEKLPPERELAKQFDVSRPSLREAIQRLEAKGLLLRRQGGGTFVQSSLWQSFSDPLVELLSDHPESQYDLLETRHALEGIAAYYAALRSTDEDKERIRELHHAIELAQQSGDLDAESNAVLQYQIAVTEAAHNVVLLHLLRCMEPMLAQNVRQNFELLYSRREMLPLVSSHRTRIFEAIMAGKPEEAREASHRHLAFIEEILLDRSREESRRERSLRRLEQRKN
notes: also called PdhR-his; recombinant PdhR-his; source: E. coli BL21 DE3 (pET21a(+)), purified (Ni2+ chelating column, HisTrap)
- stoichiometry N: 2
